Data reported in patent publication US20190015518A1, “DRUG DELIVERY COMPOSITIONS AND METHODS” (priority 2016, published 2019).

What was measured:
[1] = tested on: MDA-1986 (human head and neck squamous cell carcinoma) cells; test: Anti-proliferative activity (Resazurin Blue, 72 hours); assay type: cell-based; details: listed as HA-Lys-Pt 75 kDa
Protocol: (§1) MDA-1986 (human head and neck squamous cell carcinoma), 4T1.2-neu (murine breast cancer cells), and A2058 (human melanoma) cells were maintained in Dulbecco's Modified Eagle Medium (DMEM, Corning, Manassas, Va.) with 4.5 g/L glucose, 4.5 g/L L-glutamine, and 10% fetal bovine serum in a humidified incubator at 37° C. and 5% CO2. Cells were seeded into 96-well plates (3,000 cells/well in 90 μL media) and allowed to attach overnight. […] Resazurin Blue (Acros Organics, Geel, Belgium) in PBS was added to each well (5-μM final concentration; 10-μL addition) and incubated at 37° C. for 4 hours. Fluorescence (λex 550 nm, λem 605 nm) was quantified with a SpectraMax Gemini XS plate-reader (Molecular Devices, Sunnyvale, Calif.). The relative growth of cells incubated with each compound concentration was normalized to vehicle-treated controls (100% proliferation). Data from at least three separate experiments performed in duplicate was analyzed using non-linear regression (GraphPad Prism 5.0) to generate IC50 values.

[2] = tested on: A2058 (human melanoma) cells; test: as above; assay type: cell-based; details: mean ± S.E.M., cisplatin basis
Protocol: as §1

[3] = Plasma Pt quantitation; details: s.c. 10 mg/kg, between 24 and 72 hours
Protocol: Whole blood was centrifuged (1500×g, 5 min., 4° C., no brake). Top layer (plasma) and middle layer (white blood cells) were transferred to new tubes. Plasma was frozen (−20° C.) until analysis. […] The white blood cell pellet was washed twice with cold PBS and re-suspended in 9 mL of white blood cell buffer (10-mM Tris, pH 7.4, 2.3% NaCl, 2-mM EDTA), and 900 μL of 1.1-M NH4HCO3, 900 μL of 10% SDS, and 75 μL of 2% Proteinase K were added and incubated at 42° C. overnight. Then, 3.3 mL of 5-M NaCl was added, samples shaken vigorously, and centrifuged twice (3200×g, 5 min, 4° C.), each time discarding the pellet. DNA was pelleted with 20 mL of ice-cold 100% ethanol and centrifuged (3200×g, 5 min, 4° C.); the DNA pellet was washed twice with 75% ethanol, re-suspended in water, and quantitated. DNA was digested in 1% HNO3 (800 μL total volume) overnight at 70° C. DNA samples were diluted 1:10 in 1% HNO3 and plasma samples were diluted 1:10,000 in 1% HNO3. Diluted samples were analyzed for Pt content using ICP-MS with a calibration curve from 1-1000 ppt.

[4] = tested on: MDA-1986 head and neck tumors; test: Anticancer efficacy, orthotopic xenograft model of human HNSCC; assay type: in vivo, mouse; parameters: key to tumor response, Modified RECIST: PR=Partial Response (>30% reduction); PD=Progressive Disease (>30% tumor growth); SD=Stable Disease (neither PR nor PD criteria met)
Protocol: The MDA-1986 cells were prepared in PBS at a concentration of 2×10^7 cells/mL. Female NU/NU mice were anesthetized under 2% isoflurane in O2, and 50 μL of cell solution was injected into the oral sub-mucosa of the mice using a 27-ga needle. All procedures in the animal study were approved by the Institutional Animal Care and Use Committee of the University of Kansas. Tumor growth was monitored twice weekly by measurement with a digital caliper, and the tumor volume was calculated as 0.52×(width)^2×(length). […] The drugs were given weekly for 3 consecutive weeks.

[5] = Rehydration time of lyophilized HA-Lys-Pt; assay type: physicochemical
Protocol: 33HA-Lys-Pt (MW of HA: 33 kDa) from batch 33_01015 was used to evaluate the impact of trehalose as an excipient and lyoprotectant. […] The solution was freeze-dried using the following program. Samples were frozen in a −80° C. freezer for 4 hours. The vials were transferred to a freeze dryer and kept at −40° C. for 1.5 hours. The condenser point was set at −70° C. The vacuum setpoint was 100 mTorr. The parameters for primary drying were 30 hours at −35° C. and 10 mTorr. The parameters for secondary drying were 5 hours at 2° C. and 10 mTorr, followed by another 5 hours at 8° C. and 10 mTorr. […] During rehydration, 500-μL of water was added to the vial and the sample was gently shaken. The small molecular weight platinum species such as mono-aquated and di-aquated platinum were separated from the reconstituted 33HA-Lys-Pt using a Centricon centrifugal filter unit (10,000 MWCO, 4000 rpm for 10 min at 4° C.) and analyzed by an HPLC assay. The mobile phase was sodium phosphate solution (10-mM, pH 3.0) at a flow rate of 0.25 mL/min on an Alltech® 250 mm×4.6 mm M/M RP8/cation column thermostated at 25° C.
The solution was freeze-dried using the following program. Samples were frozen in a −80° C. freezer for 4 hours. The vials were transferred to a freeze dryer and kept at −40° C. for 1.5 hours. The condenser point was set at −70° C. The vacuum setpoint was 100 mTorr. The parameters for primary drying were 30 hours at −35° C. and 10 mTorr. The parameters for secondary drying were 5 hours at 2° C. and 10 mTorr, followed by another 5 hours at 8° C. and 10 mTorr. […] During rehydration, 500-μL of water was added to the vial and the sample was gently shaken.
One milliliter of samples were used for all tests. The trehalose percent weights varied from 8-20% wt. The pHs included 4.5, 5, 6, and 7. The solution was freeze-dried using the aforementioned freeze-drying program. […] During rehydration, 1-mL of water was added to the vial and the sample was gently shaken. Diaquated platinum species were separated using the aforementioned Centricon units and analyzed using the aforementioned HPLC method.
Other sample freezing methods were also tested. For examples, samples were gradually frozen in ethanol bath at −80° C. and lyophilized. In addition, samples were flash frozen using liquid nitrogen and lyophilized.
Rehydration using one half of the original sample volume was tested.
Besides trehalose, PEG 200 (2 and 5% wt) was tested as a second excipient to aid the rehydrate process.

[6] = 20 mg/kg s.c., three weekly injections

HA-cis-[Pt(NH3)2(N^α-Acetyl-L-Lysine)] [75HA-Lys-Pt]
IC50 ([1]; mean ± S.E.M., cisplatin basis): 39.8 ± 4.4 µM
IC50 ([1]; text b180): ~21 µM
IC50 [2]: 69.8 ± 7 µM
plasma Pt plateau concentration [3]: 4-5 μg Pt/mL plasma
average tumor size by the end of the sixth week [4, 6]: less than 200 mm^3
tumor progression delay [4, 6]: delayed by four weeks
tumor response, Modified RECIST ([4]; animal #1): PR (PR=Partial Response (>30% reduction))
tumor response, Modified RECIST ([4]; animal #2): PR (PR=Partial Response (>30% reduction))
tumor response, Modified RECIST ([4]; animal #3): PR (PR=Partial Response (>30% reduction))
tumor response, Modified RECIST ([4]; animal #4): SD
tumor response, Modified RECIST ([4]; animal #5): SD
tumor response, Modified RECIST ([4]; animal #6): PR (PR=Partial Response (>30% reduction))
tumor response, Modified RECIST ([4]; animal #7): SD
tumor response, Modified RECIST ([4]; animal #8): PR (PR=Partial Response (>30% reduction))
rate of partial response (PR) ([4]; three weekly injections): 62.5%
Rehydration Time ([5]; 1.46 mg/mL, pH 6, trehalose 0% wt): >48 h
Rehydration Time ([5]; 1.46 mg/mL, pH 6, trehalose 5% wt): Ca. 12 hour
Rehydration Time ([5]; 1.46 mg/mL, pH 6, trehalose 10% wt): 7 h
Rehydration Time ([5]; 1.46 mg/mL, pH 6, trehalose 15% wt): 6 h
Rehydration Time ([5]; 1.46 mg/mL, pH 7, trehalose 5% wt): ca. 2.5 hour
Rehydration Time ([5]; 1.46 mg/mL, pH 7, trehalose 10% wt): 1 h
Rehydration Time ([5]; 1.46 mg/mL, pH 7, trehalose 15% wt): 1 h
Rehydration Time ([5]; 1.99 mg/mL, pH 4.5, trehalose 15% wt): 26 h
Rehydration Time ([5]; 1.99 mg/mL, pH 4.5, trehalose 20% wt): 26 h
Rehydration Time ([5]; 1.99 mg/mL, pH 5, trehalose 15% wt): 26 h
Rehydration Time ([5]; 1.99 mg/mL, pH 5, trehalose 20% wt): 26 h
Rehydration Time ([5]; 1.99 mg/mL, pH adjusted to 5 at rehydration, trehalose 10% wt): 6 to 20 h
Rehydration Time ([5]; 1.99 mg/mL, pH adjusted to 6 at rehydration, trehalose 10% wt): 6 to 20 h
Rehydration Time ([5]; 1.99 mg/mL, pH adjusted to 7 at rehydration, trehalose 10% wt): 6 to 20 h
Rehydration Time ([5]; 3 mg/mL, pH 5, trehalose 15% wt): >48 h
Rehydration Time ([5]; batch 75_0706, 1.06 mg/mL, pH 5, trehalose 7.5% wt, rehydration using half the original volume): 7 h
Rehydration Time ([5]; batch 75_0706, 1.06 mg/mL, pH 5, trehalose 10% wt, rehydration using half the original volume): 7 h
Rehydration Time ([5]; batch 75_0706, 2.13 mg/mL, pH 5, trehalose 15% wt, Ethanol bath): >48 h
Rehydration Time ([5]; batch 75_0706, 2.13 mg/mL, pH 5, trehalose 20% wt, Ethanol bath): >48 h
Rehydration Time ([5]; batch 75_0706, 2.13 mg/mL, pH 5, trehalose 20% wt, PEG200 2% wt): 48 h
Rehydration Time ([5]; batch 75_0706, 2.13 mg/mL, pH 5, trehalose 20% wt, PEG200 5% wt): 48 h
Rehydration Time ([5]; batch 75_0706, 3.00 mg/mL, pH 5, trehalose 15% wt): >48 h
